The record followed here is patent publication US20090226437A1 (Genentech, published 2009).

Changes are numbered by the printed parent chain.

The target in assay [1] is T1, alpha4beta7 on 38C13 alpha4+ murine lymphoma cells transfected with integrin beta7 (38C13beta7 cells) (murine, UniProt Q00651 41-1039; P26011 20-806).
T1 construct: whole, on cells; also called 38C13-beta7 expressing cells; murine beta7-containing receptor
The assay is described as follows: cell adhesion inhibition, 38C13beta7 cells on coated muVCAM-1-Ig, experiment 1 of 2. The procedure:
(§1) RPMI8866/MAdCAM-1-Ig Cell Adhesion: RPMI8866 cells express alpha4beta7 on their surface (Roswell Park Memorial Institute, Buffalo, N.Y.). Humanized Fib504 variants (hu504 variants) were contacted with a mixture of RMPI8866 cells and MAdCAM fused to IgG coated on a solid support. […] After blocking the plates with 200 ul/well of 5 mg/ml BSA for one hour at room temperature, 50 μl of humanized Fib504 variants in assay media (RPMI 1640 media, Hyclone®, Logan Utah, USA, supplemented with 5 mg/mL BSA) were added to each well and 150,000 BCECF-labeled cells (BCECF, Molecular Probes, Eugene, Oreg.) in 50 μl of assay media were added to each well and incubated for 15 minutes at 37° C. The wells were washed two times with 150 μl of assay media to remove unbound cells. The bound cells were solubilized with 100 μl of 0.1% SDS in 50 mM Tris/HCl pH7.5. The amount of fluorescence released from lysed cells was measured by SPECTRAmax GEMINI™ (Molecular Devices, Sunnyvale, Calif.) at 485 nm excitation 530 nm emission wavelengths. The fluorescence values were analyzed as a function of the concentrations of the humanized Fib504 variants added in each assay, using a four-parameter nonlinear least squares fit, to obtain the IC₅₀ values of each humanized Fib504 variant in the assay. IC₅₀ and IC₉₀ values were estimated from the four-parameter fit. FIG. 14 is an exemplary plot of the results. The IC₉₀ and IC₅₀ values for each of the variants tested are shown below in Table 4.
(§2) 38C13beta7/muVCAM-1-Ig Cell Adhesion Assay: The 38C13beta7/muVCAM-1-Ig assay was performed according to the murine MAdCAM-1-Ig/RPMI8866 cell binding assay above, except that muVCAM-1-Ig (Genentech, Inc.) was used at 2 μg/ml to coat plates. (IC₅₀ and IC₉₀ values for 2 experiments are shown).

Assay [2] concerns the target T2, alphaEbeta7 on alphaEbeta7-transfected 293 cells (human, UniProt P38570 19-1179; P26010 20-798).
T2 construct: whole, on cells; also called alphaEbeta7 293 cells
The assay is described as follows: cell adhesion inhibition, alphaEbeta7 293 cells on coated huE-Cadherin, experiment 2 of 3. The procedure: (§3) After blocking the plates with 200 ul/well of 5 mg/ml BSA for one hour at room temperature, 50 μl of humanized Fib504 variants in assay media (RPMI 1640 media, Hyclone®, Logan Utah, USA, supplemented with 5 mg/mL BSA) were added to each well and 150,000 BCECF-labeled cells (BCECF, Molecular Probes, Eugene, Oreg.) in 50 μl of assay media were added to each well and incubated for 15 minutes at 37° C. The wells were washed two times with 150 μl of assay media to remove unbound cells. The bound cells were solubilized with 100 μl of 0.1% SDS in 50 mM Tris/HCl pH7.5. The amount of fluorescence released from lysed cells was measured by SPECTRAmax GEMINI™ (Molecular Devices, Sunnyvale, Calif.) at 485 nm excitation 530 nm emission wavelengths. The fluorescence values were analyzed as a function of the concentrations of the humanized Fib504 variants added in each assay, using a four-parameter nonlinear least squares fit, to obtain the IC₅₀ values of each humanized Fib504 variant in the assay. IC₅₀ and IC₉₀ values were estimated from the four-parameter fit. FIG. 14 is an exemplary plot of the results. The IC₉₀ and IC₅₀ values for each of the variants tested are shown below in Table 4.
(§4) The assay format is similar to the RPMI8866/MAdCAM-1-Ig assay except that the huE-Cadherin (648-EC, R&D Systems, Minneapolis, Minn.) was used at 2 μg/ml to coat the plates. Plates were then blocked with 5 mg/ml BSA as mentioned above and 50 μl of FIB504 variants in assay media (F-12:DMEM (50:50) supplemented with 5 mg/ml BSA) were add to each well and 110,000 BCECF labeled cells in 50 ul of assay media were added to each well and incubated for 15 minutes at 37° C. The wells were washed two times with 150 μl of assay media and the amount of fluorescence released by lysed cells was measured and analyzed as described above.

The target of assay [3] is T1, alpha4beta7 on 38C13 alpha4+ murine …. Kind of assay: cell adhesion inhibition, 38C13beta7 cells on coated muMAdCAM-1-Ig, experiment 1 of 2. As for the experimental part: as §1
(§5) 38C13beta7/muMAdCAM-1-Ig Cell Adhesion Assay: The 38C13beta7/muMAdCAM-1-Ig assay was similar format to the RPMI8866/MAdCAM-1-Ig except that muMAdCAM-1-Ig (Genentech, Inc.) was used at 2 μg/ml to coat plates. 38C13 alpha4+ murine lymphoma cells (Crowe, D. T. et al., J. Biol. Chem. 269:14411-14418 (1994)) were transfected with DNA encoding integrin beta7 such that alpha4beta7 was expressed on the cell surface. The ability of the antibodies variants to disrupt interaction between the cell membrane associated alpha4beta7 and MAdCAM was performed as above.

The target in assay [4] is T2, alphaEbeta7 on alphaEbeta7-transfected …. The assay is described as follows: cell adhesion inhibition, alphaEbeta7 293 cells on coated huE-Cadherin, experiment 1 of 3. The procedure:
as §3, §4

The target of assay [5] is T1, alpha4beta7 on 38C13 alpha4+ murine …. The assay is described as follows: cell adhesion inhibition, 38C13beta7 cells on coated muMAdCAM-1-Ig, experiment 2 of 2. The procedure: as §1, §5
In assay [6] the target is T2, alphaEbeta7 on alphaEbeta7-transfected …. Kind of assay: cell adhesion inhibition, alphaEbeta7 293 cells on coated huE-Cadherin, experiment 3 of 3. As for the experimental part:
as §3, §4

In assay [7] the target is T1, alpha4beta7 on 38C13 alpha4+ murine …. The assay is described as follows: cell adhesion inhibition, 38C13beta7 cells on coated muVCAM-1-Ig, experiment 2 of 2. As for the experimental part:
as §1, §2

Assay [8] has as its target T3, human alpha4beta7 receptor on RPMI8866 cells (human, UniProt P13612 34-1032; P26010 20-798).
T3 construct: whole, on cells; also called alpha4beta7 on RPMI8866
Kind of assay: cell adhesion inhibition, RPMI8866 cells on coated MAdCAM-1-Ig, Exp 1. The procedure:
as §1

In assay [9] the target is T3, human alpha4beta7 receptor on RPMI8866 …. Kind of assay: cell adhesion inhibition, RPMI8866 cells on coated 7dVCAM-1, Exp 2. As for the experimental part: as §1
(§6) RPMI8866/7dVCAM-1 Cell Adhesion: The RPMI8866/7dVCAM-1 assay is similar format to the RPMI8866/MAdCAM-1-Ig except that 7dVCAM-1 (ADP5, R&D Systems, Minneapolis, Minn.) was used at 2 ug/ml to coat plates. The results were analyzed as described above for the MAdCAM binding experiments. The IC₅₀ values for each of the variants tested are shown below in Table 5.

Assay [10] has the same target. The assay is described as follows: cell adhesion inhibition, RPMI8866 cells on coated MAdCAM-1-Ig, Exp 2. As for the experimental part:
as §1

The target is the same in assay [11]. The assay is described as follows: cell adhesion inhibition, RPMI8866 cells on coated 7dVCAM-1, Exp 1. The procedure:
as §1, §6

T3 sequence (P13612 34-1032, chain 1 of 2): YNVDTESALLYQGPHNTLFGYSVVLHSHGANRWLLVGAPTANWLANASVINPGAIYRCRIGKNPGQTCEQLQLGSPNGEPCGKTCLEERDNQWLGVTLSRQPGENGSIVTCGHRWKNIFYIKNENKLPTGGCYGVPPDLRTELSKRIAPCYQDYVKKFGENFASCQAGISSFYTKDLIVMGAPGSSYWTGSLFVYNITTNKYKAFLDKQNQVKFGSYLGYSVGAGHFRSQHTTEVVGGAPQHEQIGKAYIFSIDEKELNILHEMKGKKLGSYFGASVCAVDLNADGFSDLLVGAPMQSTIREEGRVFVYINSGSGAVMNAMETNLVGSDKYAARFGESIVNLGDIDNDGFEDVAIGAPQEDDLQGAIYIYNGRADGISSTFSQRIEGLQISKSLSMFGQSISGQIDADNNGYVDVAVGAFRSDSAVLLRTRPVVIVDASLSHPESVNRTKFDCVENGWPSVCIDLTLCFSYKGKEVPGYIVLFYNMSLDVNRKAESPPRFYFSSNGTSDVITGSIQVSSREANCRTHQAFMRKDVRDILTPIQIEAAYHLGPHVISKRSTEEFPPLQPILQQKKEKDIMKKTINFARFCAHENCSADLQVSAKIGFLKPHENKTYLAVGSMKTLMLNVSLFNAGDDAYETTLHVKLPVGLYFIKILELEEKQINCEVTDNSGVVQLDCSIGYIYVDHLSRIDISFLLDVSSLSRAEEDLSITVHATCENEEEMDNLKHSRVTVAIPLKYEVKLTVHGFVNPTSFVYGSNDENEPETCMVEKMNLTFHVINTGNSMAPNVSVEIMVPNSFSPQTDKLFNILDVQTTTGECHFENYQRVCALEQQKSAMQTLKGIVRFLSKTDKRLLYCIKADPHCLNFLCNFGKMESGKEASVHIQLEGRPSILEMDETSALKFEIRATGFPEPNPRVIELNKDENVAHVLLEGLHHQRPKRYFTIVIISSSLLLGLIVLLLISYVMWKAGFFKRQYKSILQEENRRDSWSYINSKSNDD
T3 sequence (P26010 20-798, chain 2 of 2): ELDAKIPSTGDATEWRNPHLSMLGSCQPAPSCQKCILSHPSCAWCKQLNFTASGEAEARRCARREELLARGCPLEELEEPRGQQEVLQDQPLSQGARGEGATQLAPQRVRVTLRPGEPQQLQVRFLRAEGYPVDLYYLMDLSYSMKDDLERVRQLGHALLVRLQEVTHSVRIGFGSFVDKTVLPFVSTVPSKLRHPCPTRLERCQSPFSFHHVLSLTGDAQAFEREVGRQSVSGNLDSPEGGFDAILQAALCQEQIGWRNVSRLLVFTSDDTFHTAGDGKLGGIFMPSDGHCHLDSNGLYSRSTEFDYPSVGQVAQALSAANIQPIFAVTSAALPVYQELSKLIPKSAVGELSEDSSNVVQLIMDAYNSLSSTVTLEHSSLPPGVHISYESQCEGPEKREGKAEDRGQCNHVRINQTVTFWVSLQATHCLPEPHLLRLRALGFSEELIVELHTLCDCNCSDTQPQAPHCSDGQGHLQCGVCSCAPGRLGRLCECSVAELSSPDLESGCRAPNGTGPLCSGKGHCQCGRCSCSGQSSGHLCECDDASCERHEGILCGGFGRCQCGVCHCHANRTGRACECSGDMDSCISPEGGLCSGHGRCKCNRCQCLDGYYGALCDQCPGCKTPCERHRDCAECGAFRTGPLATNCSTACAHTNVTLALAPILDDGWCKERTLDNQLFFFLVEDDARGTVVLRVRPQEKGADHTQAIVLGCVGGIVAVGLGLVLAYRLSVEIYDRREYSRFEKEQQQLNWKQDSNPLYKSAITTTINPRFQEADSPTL
T2 sequence (P38570 19-1179, chain 1 of 2): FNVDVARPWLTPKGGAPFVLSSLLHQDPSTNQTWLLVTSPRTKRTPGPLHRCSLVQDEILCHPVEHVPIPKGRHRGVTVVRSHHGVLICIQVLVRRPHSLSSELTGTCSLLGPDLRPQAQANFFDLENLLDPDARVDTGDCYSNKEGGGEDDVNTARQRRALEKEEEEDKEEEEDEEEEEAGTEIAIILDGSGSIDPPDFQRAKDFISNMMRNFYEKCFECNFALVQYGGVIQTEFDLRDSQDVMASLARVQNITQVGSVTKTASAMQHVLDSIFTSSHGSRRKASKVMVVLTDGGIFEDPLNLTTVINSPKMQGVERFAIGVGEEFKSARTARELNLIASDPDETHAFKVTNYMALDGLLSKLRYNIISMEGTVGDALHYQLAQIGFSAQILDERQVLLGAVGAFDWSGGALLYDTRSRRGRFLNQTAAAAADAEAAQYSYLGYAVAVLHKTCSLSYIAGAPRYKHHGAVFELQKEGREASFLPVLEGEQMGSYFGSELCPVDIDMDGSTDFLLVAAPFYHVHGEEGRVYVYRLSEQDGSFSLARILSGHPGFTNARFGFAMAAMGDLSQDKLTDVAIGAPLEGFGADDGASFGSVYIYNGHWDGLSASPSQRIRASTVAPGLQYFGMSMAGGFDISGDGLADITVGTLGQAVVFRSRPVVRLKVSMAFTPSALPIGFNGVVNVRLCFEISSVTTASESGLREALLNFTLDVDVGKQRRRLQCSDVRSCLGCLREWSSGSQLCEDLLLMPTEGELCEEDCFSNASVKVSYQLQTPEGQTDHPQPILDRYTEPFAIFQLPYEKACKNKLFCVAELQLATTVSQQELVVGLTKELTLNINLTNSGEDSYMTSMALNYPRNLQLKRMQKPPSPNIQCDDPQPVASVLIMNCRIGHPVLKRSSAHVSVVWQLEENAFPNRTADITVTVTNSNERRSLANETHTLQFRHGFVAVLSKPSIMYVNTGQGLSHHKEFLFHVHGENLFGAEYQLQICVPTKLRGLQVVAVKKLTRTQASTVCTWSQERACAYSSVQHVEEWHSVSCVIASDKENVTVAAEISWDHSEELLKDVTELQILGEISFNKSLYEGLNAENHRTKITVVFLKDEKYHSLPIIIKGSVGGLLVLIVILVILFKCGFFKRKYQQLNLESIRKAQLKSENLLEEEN
T2 sequence (P26010 20-798, chain 2 of 2): as the sequence (P26010 20-798, chain 2 of 2) above
T1 sequence (Q00651 41-1039, chain 1 of 2): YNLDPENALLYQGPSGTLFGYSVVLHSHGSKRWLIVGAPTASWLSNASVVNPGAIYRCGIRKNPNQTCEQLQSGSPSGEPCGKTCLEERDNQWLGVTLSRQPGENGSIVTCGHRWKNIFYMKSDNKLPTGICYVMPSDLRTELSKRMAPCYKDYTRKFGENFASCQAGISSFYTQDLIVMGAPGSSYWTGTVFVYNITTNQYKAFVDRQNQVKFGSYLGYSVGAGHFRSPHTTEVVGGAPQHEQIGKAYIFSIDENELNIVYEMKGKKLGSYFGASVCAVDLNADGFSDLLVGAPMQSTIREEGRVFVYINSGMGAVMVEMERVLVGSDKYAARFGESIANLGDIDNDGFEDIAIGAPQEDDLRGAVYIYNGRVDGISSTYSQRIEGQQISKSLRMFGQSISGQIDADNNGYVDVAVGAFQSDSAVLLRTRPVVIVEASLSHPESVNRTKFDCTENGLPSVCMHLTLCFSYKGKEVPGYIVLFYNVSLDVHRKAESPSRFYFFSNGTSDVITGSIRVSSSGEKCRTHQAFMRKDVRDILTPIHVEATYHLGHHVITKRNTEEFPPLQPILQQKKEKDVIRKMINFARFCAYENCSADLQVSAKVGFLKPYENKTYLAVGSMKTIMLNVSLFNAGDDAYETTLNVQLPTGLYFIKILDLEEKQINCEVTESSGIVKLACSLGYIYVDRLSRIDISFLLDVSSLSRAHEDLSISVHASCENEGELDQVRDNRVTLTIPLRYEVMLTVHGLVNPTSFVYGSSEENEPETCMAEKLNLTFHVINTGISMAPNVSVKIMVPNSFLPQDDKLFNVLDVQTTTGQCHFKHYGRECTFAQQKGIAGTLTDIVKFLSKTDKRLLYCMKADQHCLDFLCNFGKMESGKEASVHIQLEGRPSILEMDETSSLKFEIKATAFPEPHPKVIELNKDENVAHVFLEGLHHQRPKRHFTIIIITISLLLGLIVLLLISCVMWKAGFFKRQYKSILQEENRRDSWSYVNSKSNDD
T1 sequence (P26011 20-806, chain 2 of 2): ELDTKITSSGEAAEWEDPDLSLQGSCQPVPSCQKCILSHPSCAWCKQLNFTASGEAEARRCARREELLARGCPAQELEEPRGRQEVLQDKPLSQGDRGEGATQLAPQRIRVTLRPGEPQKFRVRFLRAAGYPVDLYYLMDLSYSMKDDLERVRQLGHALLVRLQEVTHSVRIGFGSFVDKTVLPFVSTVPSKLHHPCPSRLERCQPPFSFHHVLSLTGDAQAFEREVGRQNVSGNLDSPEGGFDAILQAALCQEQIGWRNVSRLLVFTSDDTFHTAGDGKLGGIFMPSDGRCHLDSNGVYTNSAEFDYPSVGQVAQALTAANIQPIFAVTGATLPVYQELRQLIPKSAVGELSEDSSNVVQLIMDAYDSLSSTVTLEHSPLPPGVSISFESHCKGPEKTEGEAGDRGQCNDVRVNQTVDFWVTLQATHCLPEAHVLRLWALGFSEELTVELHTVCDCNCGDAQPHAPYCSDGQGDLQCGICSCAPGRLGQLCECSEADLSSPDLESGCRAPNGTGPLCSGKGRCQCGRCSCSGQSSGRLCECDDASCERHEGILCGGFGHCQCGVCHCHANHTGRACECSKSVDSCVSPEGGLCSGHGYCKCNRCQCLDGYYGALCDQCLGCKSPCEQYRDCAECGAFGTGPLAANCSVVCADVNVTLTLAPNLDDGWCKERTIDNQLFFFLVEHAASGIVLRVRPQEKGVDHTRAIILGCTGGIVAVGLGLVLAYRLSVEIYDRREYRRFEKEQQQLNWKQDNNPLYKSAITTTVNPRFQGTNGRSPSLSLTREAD

B1: Variant hu504.32, IgG (antibody, V domains shown)
VH: EVQLVESGGGLVQPGGSLRLSCAASGFFITNNYWGWVRQAPGKGLEWVGYISYSGSTSYNPSLKSRFTISRDTSKNTFYLQMNSLRAEDTAVYYCAMTGSSGYFDFWGQGTLVTVSS
VL: DIQMTQSPSSLSASVGDRVTITCRASESVDDLLHWYQQKPGKAPKLLIKYASQSISGVPSRFSGSGSGTDFTLTISSLQPEDFATYYCQQGNSLPNTFGQGTKVEIKR
notes: methionine at heavy chain position 94; also called hu504.32M; 504.32M
With B1, the IC50 (usually the midpoint of a concentration-inhibition curve) in assay [1] worked out at 0.562 nM; in [2] it was 6.99 nM; in [3] it was 0.718 nM; in assay [4] it was 1.81 nM; in assay [5], 0.458 nM; in assay [6] it was 3.47 nM. The molecule further yielded a half-maximal inhibitory concentration (IC50) in [7] of 0.33 nM. The IC90 – broadly, the concentration at which the effect reaches the 90% level – in assay [1] stood at 2 nM; in [2], 24.5 nM; in assay [3] it was 4.08 nM; in assay [4], 8.8 nM; in assay [5], 1.51 nM; in [6] it was 11.7 nM. In [7], this molecule yielded a 90% effect concentration (IC90) of 1.84 nM.

B2: Variant hu504.16, IgG (antibody, name in Kabat numbering, V domains shown)
VH: B1 VH
VL: B1 VL with D31T
In the case of B2, the IC50 in [1] came to 0.835 nM; in assay [2], 10.1 nM; in assay [8] it was 0.0768 nM; in [3] it was 0.998 nM; in assay [4], 1.96 nM; in [9] it was 0.223 nM. Besides, the IC50 in assay [5] stood at 0.61 nM; in assay [10], 0.206 nM; in [11], 0.098 nM; in assay [6], 4.58 nM; in [7], 0.584 nM. Also, the concentration for an effect of 90% (IC90) in assay [1] is 2.86 nM; in assay [2], 33.7 nM; in assay [8], 0.244 nM; in assay [3] it was 3.72 nM; in assay [4] it was 7.03 nM; in [9] it was 0.774 nM. The 90% effect concentration (IC90) in [5] worked out at 4.08 nM; in assay [10], 0.551 nM; in [11], 0.261 nM; in assay [6], 13.5 nM; in [7], 1.84 nM.

B3: Variant hu504.5, IgG (antibody, name in Kabat numbering, V domains shown)
VH: B1 VH
VL: B1 VL with D31S
As to B3, the concentration for half-maximal inhibition (IC50) in [1] came to 0.763 nM; in [2] it was 10.2 nM; in assay [8], 0.067 nM; in assay [3] it was 0.859 nM; in [4] it was 2.13 nM; in assay [9], 0.27 nM. The half-maximal inhibitory concentration (IC50) in [5] was determined as 0.466 nM; in [10], 0.248 nM; in [11], 0.088 nM; in [6] it was 4.77 nM; in assay [7], 0.407 nM. Moreover, the IC90 in assay [1] was 3.07 nM; in assay [2] it was 28.7 nM; in assay [8], 0.361 nM; in assay [3], 2.32 nM; in assay [4] it was 7.99 nM; in [9], 0.726 nM. Further, the IC90 amounted to 2.61 nM in assay [5]; 0.88 nM in assay [10]; 0.396 nM in assay [11]; 10.2 nM in assay [6]; 2.3 nM in assay [7].

B4: Rat Fib504 (antibody FIB504.64 produced by hybridoma ATCC HB-293) (antibody, V domains shown)
VH: EVQLQESGPGLVKPSQSLSLTCSVTGFFITNNYWGWIRKFPGNKMEWMGYISYSGSTSYNPSLKSRISITRDTSKNQFFLQLNSVTTEDTATYYCAMTGSSGYFDFWGPGTMVTVSS
VL: DVVMTQSPATLSVTPGERISLSCRASESVDTYLHWYQQKPNESPRLLIKYASQSISGIPSRFSGSGSGTDFTLSINGVELEDLSIYYCQQGNSLPNTFGAGTKLELKR
notes: Whole rat antibody in the cell adhesion assays; also called rat anti-mouse beta7 antibody
Consider B4, for which the IC50 turned out to be 0.845 nM in assay [1]; 7.89 nM in [2]; 0.098 nM in [8]; 0.682 nM in assay [3]; 2.05 nM in assay [4]; 0.193 nM in assay [9]. Moreover, the IC50 in assay [5] is 0.306 nM; in assay [10], 0.197 nM; in [11] it was 0.107 nM; in assay [6] it was 4.19 nM; in [7], 0.447 nM. For the same molecule, the concentration for an effect of 90% (IC90) in assay [1] turned out to be 2.9 nM; in [2], 24.5 nM; in assay [8], 0.483 nM; in [3], 2.87 nM; in assay [4], 8.8 nM; in assay [9], 0.58 nM. Besides, the IC90 was found to be 1.51 nM in [5]; 0.703 nM in assay [10]; 0.396 nM in [11]; 9.95 nM in assay [6]; 2.3 nM in assay [7].
